Measurements published in patent publication US20250376529A1 (Amgen, published 2025).

T1: Rhesus GIPR (rhesus, UniProt F7E1R9 22-466)
T1 sequence: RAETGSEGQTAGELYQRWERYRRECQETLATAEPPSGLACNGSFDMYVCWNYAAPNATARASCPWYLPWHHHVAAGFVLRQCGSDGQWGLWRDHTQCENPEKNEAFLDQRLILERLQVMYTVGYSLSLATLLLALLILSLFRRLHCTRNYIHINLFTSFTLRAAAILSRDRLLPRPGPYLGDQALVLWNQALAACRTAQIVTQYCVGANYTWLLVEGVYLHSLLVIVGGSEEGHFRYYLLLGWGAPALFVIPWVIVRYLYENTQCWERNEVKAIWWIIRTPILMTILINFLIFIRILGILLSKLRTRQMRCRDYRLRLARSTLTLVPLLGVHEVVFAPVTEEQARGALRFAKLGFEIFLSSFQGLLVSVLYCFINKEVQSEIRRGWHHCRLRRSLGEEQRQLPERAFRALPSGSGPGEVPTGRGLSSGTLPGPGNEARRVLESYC


Molecular target: T1, Rhesus GIPR
Test: cell-based or functional assay

| Rhesus GIPR CAMP Assay (Conc. mAb @ 60% Inhibition in nM) | Binder |
| --- | --- |
| 1.28 nM | 18F2.009 (antibody, human IgG1, kappa, N297G, V domains shown) VH: not shown VL: DIQMTQSPSSLSASIGDRVTITCRASQDLRNYLGWYQQKPGKAPKLLIYGASSLQSGVPSRFSGSGSGTEFTLTISSLQPEDFATYYCLQHNNYPFTFGPGTKVDIKR |
| 0.52 nM | 18F2.006 (antibody, human IgG1, kappa, N297G, V domains shown) VH: QVQLVESGGGVVQPGRSLRLSCAASGFTFSNFGMHWVRQAPGKGLEWVAVIWYDASNENYADAVKGRFTISRDNSKNTLYLHMNSLRAADTAVYYCARDGTIFGVVLGDYWGQGTLVTVSS VL: DIQMTQSPSSLSASIGDRVTITCRASQDLRNYLGWYQQKPGKAPKRLIYGASSLQSGVPSRFSGSGSGTEFTLTISSLQPEDFATYYCLQHNNYPFTFGPGTKVDIKR |
| 1.75 nM | 18F2.010 (antibody, human IgG1, kappa, N297G, V domains shown) VH: QVQLVESGGGVVQPGRSLRLSCAASGFTFSNFGMHWVRQAPGKGLEWVAVIWYDASNENYADSVKGRFTISRDNSKNTLYLQMNSLRAADTAVYYCARDGTIFGVVLGDYWGQGTLVTVSS VL: DIQMTQSPSSLSASIGDRVTITCRASQDLRNYLGWYQQKPGKAPKLLIYGASSLQSGVPSRFSGSGSGTEFTLTISSLQPEDFATYYCLQHNNYPFTFGPGTKVDIKR |
| 1.94 nM | 18F2.007 (antibody, human IgG1, kappa, N297G, V domains shown) VH: QVQLVESGGGVVQPGRSLRLSCAASGFTFSNFGMHWVRQAPGKGLEWVAVIWYDASNENYADAVKGRFTISRDNSKNTLYLHMNSLRAADTAVYYCARDGTIFGVVLGDYWGQGTLVTVSS VL: DIQMTQSPSSLSASIGDRVTITCRASQDLRNYLGWYHQKPGKAPKLLIYGASSLQSGVPSRFSGSGSGTEFTLTISSLQPEDFATYYCLQHNNYPFTFGPGTKVDIKR |
| 1.76 nM | 18F2.008 (antibody, human IgG1, kappa, N297G, V domains shown) VH: not shown VL: DIQMTQSPSSLSASIGDRVTITCRASQDLRNYLGWYHQKPGKAPKRLIYGASSLQSGVPSRFSGSGSGTEFTLTISSLQPEDFATYYCLQHNNYPFTFGPGTKVDIKR |

The remaining lines, values behind:

| Binder | Rhesus GIPR CAMP Assay (Conc. mAb @ 60% Inhibition in nM) |
| --- | --- |
| 5G12.006.001 (antibody, human IgG1, kappa, N297G) heavy: not shown light: DIQLTQSPSSLSASVGDRVTITCRASQTISRFLNWYQQKPGKAPELLIYVASSLQSGVPSRFSGSGSGTDFTLTISSLQPEDFATYYCQQSYSTLISFGQGTKLEIKRTVAAPSVFIFPPSDEQLKSGTASVVCLLNNFYPREAKVQWKVDNALQSGNSQESVTEQDSKDSTYSLSSTLTLSKADYEKHKVYACEVTHQGLSSPVTKSFNRGEC | 0.9 nM |
| 6A5.004.007 (antibody, human IgG1, kappa, N297G, V domains shown) VH: QVQLVESGGGVVQPGRSLRLSCAASGFSFSSYGMHWVRQPPGKGLEWVAAIWYDANNKYYADAVKGRFTISRDSSKNTLYLQMNSLRAEDTAVYYCARDRTIFGVVLEYWGQGTLVTVSS VL: not shown | 0.61 nM |
| 6A5.004.008 (antibody, human IgG1, kappa, N297G, V domains shown) VH: QVQLVESGGGVVQPGRSLRLSCAASGFSFSSYGMHWVRQPPGKGLEWVAAIWYDGNNKYYADAVKGRFTISRDSSKNTLYLQMNSLRAEDTAVYYCARDRTIFGVVLEYWGQGTLVTVSS VL: DIQMTQSPSSLSASVGDRVTITCQASQDITNYLNWYQQKPGKAPKLLIYDASNLEPGVPSRFSGSGSGTDFTLTISSLQPEDFATYYCQQYDDLFTFGPGTKVDIKR | 0.82 nM |
| 18F2.004 (antibody, human IgG1, kappa, N297G, V domains shown) VH: not shown VL: DIQMTQSPSSLSASIGDRVTITCRASQDLRNYLGWYHQKPGKAPKLLIYGASSLQSGVPSRFSGSGSGTEFTLTISSLQPEDFATYYCLQHNNYPFTFGPGTKVDIKR | 2.72 nM |
| 18F2.005 (antibody, human IgG1, kappa, N297G, V domains shown) VH: not shown VL: DIQMTQSPSSLSASIGDRVTITCRASQDLRNYLGWYQQKPGKAPKRLIYGASSLQSGVPSRFSGSGSGTEFTLTISSLQPEDFATYYCLQHNNYPFTFGPGTKVDIKR | 1.13 nM |
